29 sequences from the supplement of paper PMC9170038 can be followed below.

The test system of the data set is MS2 coat protein. The data set is described as follows: apparent KD of MS2 coat protein; designed switch direction (-1 OFF switch, 1 ON switch): -1; higher = weaker reporter binding. In a few lines:
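Designed RNA switches with common flanks were transcribed on Illumina chips by stalled E. coli RNA polymerase and titrated with SNAP-549-labelled MS2 coat protein, from 0.7 or 1.5 nM doubling to 3 µM, in Tris-HCl pH 7.5 buffer with KCl, MgCl2, BSA, DTT, tRNA and Tween-20. Steps lasted 0.8–1.5 h (lowest) to 10–20 min (highest). Titrations ran without input, with 200 uM small-molecule ligand, or with an oligonucleotide input. Normalised cluster fluorescence was curve-fitted, and apparent KD is the per-design median over clusters.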

Where [1] appears, read: Eterna round: R95, input ligand: FMN 200 uM.
Setting [2] is: Eterna round: R95, input ligand: microRNA oligo, concentration not stated.
[3] abbreviates: Eterna round: R95, input ligand: none.
Where [4] appears, read: input ligand: microRNA oligo, concentration not stated.

Consider “UGUACGAUGCGUGCUGACAUGCGUCGUGCAGCAGGUGAUACAUGAGGAUCACCCAUGUCCUCAUUUGCUCGUCUUGA [Mat - Sensor v3 - Turn-off var 2 - D20] (puzzle: Sensor v3, turn-off variant 2)”, for which the “apparent KD of MS2 coat protein” value by setting is: under setting [1], 68.5 nM; under setting [2], 475 nM; under setting [3], 75.2 nM.

“UGUACUAACACGAUAGUGUUAGUACAAUAAGCUUGUGUUACAUGAGGAUCACCCAUGUCCUCAUAAGCUCGUCUUAU [Mat - Sensor v3 - Turn-off var 2 - D55] (puzzle: Sensor v3, turn-off variant 2)”: the “apparent KD of MS2 coat protein” value runs as follows: under setting [1], 109 nM; under setting [2], 141 nM; under setting [3], 105 nM.

Take “UGUACUAACACGAUAGUGUUAGUACUAUAAGCUUGUGUUACAUGAGGAUCACCCAUGUCCUCAUAGGCUCGUCUUAU [Mat - Sensor v3 - Turn-off var 2 - D87] (puzzle: Sensor v3, turn-off variant 2)”: the “apparent KD of MS2 coat protein” value reads like this: under setting [1], 646 nM; under setting [2], 47.5 nM; under setting [3], 446 nM.

In the case of “UGUACUAUGCGAGCUGACUUGCGUAGUGCAGCAAGUGAAACAUGAGGAUCACCCAUGUCCUCAUUUGCUCGUCUUAU [SL-sv3-2.01 JL mod] (puzzle: Sensor v3, turn-off variant 2)”, the “apparent KD of MS2 coat protein” value is, setting by setting: under setting [1], 23.3 nM; under setting [2], 337 nM; under setting [3], 22 nM.

As to “UGUACUAUGCGAGCUGACUUGCGUAGUGCAGCAGGUGUAACAUGAGGAUCACCCAUGUCCUCAUUUGCUCGUCUUAU [SL-sv3-2.05 JL mod] (puzzle: Sensor v3, turn-off variant 2)”, the “apparent KD of MS2 coat protein” value under setting [1] came out at 347 nM, the “apparent KD of MS2 coat protein” value under setting [2] worked out at 297 nM and the “apparent KD of MS2 coat protein” value under setting [3] worked out at 414 nM.

On to “UGUACUAUGCGUGCUGACAUGCGUAGUGCAGCAGGUGUAACAUGAGGAUCACCCAUGUCCUCAUUUGCUCGUCUUAA [Mat - Sensor v3 - Turn-off var 2 - D14] (puzzle: Sensor v3, turn-off variant 2)”, for which the “apparent KD of MS2 coat protein” value runs as follows: under setting [1], 207 nM; under setting [2], 335 nM.

With “UGUACUAUGCGUGCUGACAUGCGUAGUGCAGCAGGUGUUACAUGAGGAUCACCCAUGUCCUCAUUUGCUCGUCUUAA [Mat - Sensor v3 - Turn-off var 2 - D17] (puzzle: Sensor v3, turn-off variant 2)”, the “apparent KD of MS2 coat protein” value reads like this: under setting [1], 205 nM; under setting [2], 219 nM; under setting [3], 177 nM.

On to “UGUAGAGUGGUAGGAUAUCCGUCUGUUUCAGUCGGAGAAGGACCACAGUCACUGGGUCCAUGUUUCAUGGAGACCUGAUCUACU [pwkr exNG1 F6.10] (Eterna round: R96, puzzle: Exclusion NG 1)”, for which the “apparent KD of MS2 coat protein” value by setting is: (input ligand: FMN 200 uM) 185 nM; under setting [4], 49 nM; (input ligand: none) 195 nM.

Take “UGUAGAGUGGUAGGAUAUCCGUCUGUUUCAGUCGGAGAAGGACCACAGUCACUGGGUCCUUAUAUGGGUGACCAUGUAUCUACU [pwkr exNG1 F6.5] (Eterna round: R96, puzzle: Exclusion NG 1)”: the “apparent KD of MS2 coat protein” value turned out to be 652 nM (input ligand: FMN 200 uM), 303 nM under setting [4] and 369 nM (input ligand: none).

For “UGUAGAUCUACGCUUGCGUGGAUCUGCUUAGCAAGUGAUACAUGAGGAUCACCCAUGUCCUCAUUUGCUCGUCUUAU [JL turnoff v2 99.01] (puzzle: Sensor v3, turn-off variant 2)”, the “apparent KD of MS2 coat protein” value by setting is: under setting [1], 15.7 nM; under setting [2], 212 nM; under setting [3], 14 nM.

With “UGUCAGAUGGUAGGAUAUCCAUAUCGAGUGACCCUUUCAUAACAUGAGGAUCACCCAUGUCGGUGGGAGAAGGGCUGUAUGGUG [salish99_ExNG02_R04_025] (Eterna round: R96, puzzle: Exclusion NG 2)”, the “apparent KD of MS2 coat protein” value reads like this: (input ligand: FMN 200 uM) 26.8 nM; under setting [4], 19.1 nM; (input ligand: none) 24.6 nM.

Turning to “UGUCAGAUGGUAGGAUAUCCAUAUCGAGUGACCCUUUCCUAACAUGAGGAUCACCCAUGUCGGUGGGAGAAGGGCCGUAUGGUG [salish99_ExNG02_R04_033] (Eterna round: R96, puzzle: Exclusion NG 2)”, the “apparent KD of MS2 coat protein” value reads like this: (input ligand: FMN 200 uM) 11.1 nM; under setting [4], 14.2 nM; (input ligand: none) 15.2 nM.

Take “UGUCAGAUGGUAGGAUAUCCAUAUCGAGUGACUCUUUCAUAACAUGAGGAUCACCCAUGUCGGUGGGAGAAGGGCCGUAUGGUG [salish99_ExNG02_R04_027] (Eterna round: R96, puzzle: Exclusion NG 2)”: the “apparent KD of MS2 coat protein” value (input ligand: FMN 200 uM) worked out at 22.9 nM, the “apparent KD of MS2 coat protein” value under setting [4] turned out to be 14.5 nM and the “apparent KD of MS2 coat protein” value (input ligand: none) was determined as 25.2 nM.

For “UGUCAGAUGGUAGGAUAUCCAUAUCGCGUGUCCCUUUCCUAACAUGAGGAUCACCCAUGUCGGUGGGAGAAGGGCCGUAUGGUG [salish99_ExNG02_R04_035] (Eterna round: R96, puzzle: Exclusion NG 2)”, the “apparent KD of MS2 coat protein” value under setting [4] was 9.49 nM.

On to “UGUCUUCAUAUCACAUGAGGAUCACCCAUGUUAUUCAUCUCGUAGGAUAUCGAGGUUUUUUAUUUCGAGAAGGACGUAUUGUUU [JR_ExcNG3_Sub077] (Eterna round: R96, puzzle: Exclusion NG 3)”, for which the “apparent KD of MS2 coat protein” value (input ligand: FMN 200 uM) came out at 215 nM, the “apparent KD of MS2 coat protein” value under setting [4] was 135 nM and the “apparent KD of MS2 coat protein” value (input ligand: none) was determined as 153 nM.

“UGUGCGUAUGUGAGGAUAUGCUGGUCCUUGGAUCGGCAGAAGGCACAUGAGGAUCACCCAUGUGGUGUCGUUCA [salish99_Bmod_ex4_098] (puzzle: Brourd's mod of Exclusion 4)”: under setting [2], the “apparent KD of MS2 coat protein” value was 208 nM.

Regarding “UGUGCGUAUGUGAGGAUAUGCUGGUCCUUGGCUCGGCAGAAGGCACAUGAGGAUCACCCAUGUGGUGUCGUACU [salish99_Bmod_ex4_067] (puzzle: Brourd's mod of Exclusion 4)”, under setting [2], the “apparent KD of MS2 coat protein” value stood at 75.6 nM.

For the sequence “UGUGUAACGGAGGAUAUAGGACUUCAACGAAGACUAGAAGGCCGAACAUGAGGAUCACCCAUGUGGUCCUCCGU [Dicesoqu] (puzzle: Exclusion 6)”, the “apparent KD of MS2 coat protein” value under setting [2] came to 13.2 nM.

Consider “UGUGUACGAGGAUAUAGAUGGAAUGACAUGAGGAUCACCCAUGUGAUCGAUCUAUUGGGUUUAGAAGGUGUAUAUA [JR_Ex5_Sub047] (Eterna round: R97, puzzle: Exclusion 5)”, for which the “apparent KD of MS2 coat protein” value runs as follows: (input ligand: FMN 200 uM) 27.7 nM; (input ligand: none) 34.4 nM.

In the case of “UGUGUGAGACAGGAUAUGCUGGAUGAAAGGCAGGUAGAAGGGUCUACAUGAGGAUCACCCAUGUGGCCGGUUGG [Ex6 #73] (Eterna round: R97, puzzle: Exclusion 6)”, the “apparent KD of MS2 coat protein” value by setting is: (input ligand: FMN 200 uM) 20.6 nM; (input ligand: none) 20.4 nM.

As for “UGUGUGAGACAGGAUAUGCUGGAUGUGAGGCGGGUAGAAGGGUCUACAUGAGGAUCACCCAUGUGGCCGGUUGG [Ex6 #70] (Eterna round: R97, puzzle: Exclusion 6)”, the “apparent KD of MS2 coat protein” value is 19.4 nM (input ligand: FMN 200 uM) and 17.3 nM (input ligand: none).

For the sequence “UGUGUGUGAGGAUAUACAAUGGGCCCGGGAAACCGGGCCCUACAUGAGGAUCACCCAUGUAGAAGGCGCGCGCG [-39.6, -37.5 kcal A 24%, 0,6bis] (Eterna round: R97, puzzle: Exclusion 2)”, the “apparent KD of MS2 coat protein” value came out at 47.2 nM (input ligand: FMN 200 uM) and 73.6 nM (input ligand: none).

Take “UGUGUGUGAGGAUAUACAAUUGUGUGUGGAAACGCGCGCGUACAUGAGGAUCACCCAUGUAGAAGGCGCGCGCG [-30.7, -27.4 kcal A 24%, 6bis,6bis] (Eterna round: R97, puzzle: Exclusion 2)”: the “apparent KD of MS2 coat protein” value (input ligand: FMN 200 uM) was determined as 18.4 nM and the “apparent KD of MS2 coat protein” value (input ligand: none) was determined as 17.9 nM.

Regarding “UGUUAUAGAGGAUAUGCGUGAAAAUAGAUUCAUGGAAAUUUACAUGAGGAUCACCCAUGUAGAAGGCUGUGAUU [LRO-Excl2-15-mod 090 by JR] (Eterna round: R97, puzzle: Exclusion 2)”, the “apparent KD of MS2 coat protein” value is, setting by setting: (input ligand: FMN 200 uM) 14.8 nM; (input ligand: none) 14.7 nM.

Turning to “UGUUAUAGAGGAUAUGCGUGAAUAUAGAUUCAUGGAAAUUUACAUGAGGAUCACCCAUGUAGAAGGCUGUGUUU [LRO-Excl2-17-mod 090 by JR] (Eterna round: R97, puzzle: Exclusion 2)”, the “apparent KD of MS2 coat protein” value was 14.6 nM (input ligand: FMN 200 uM) and 15.6 nM (input ligand: none).

For the sequence “UGUUCGUCAGGAUAUUCUACUUAUUACAUGAGGAUCACCCAUGUGUAUGUACAAGGGUGUGAAGAAGGGACUUGUU [LRO-Excl5-08-mod A17d by Omei] (Eterna round: R97, puzzle: Exclusion 5)”, the “apparent KD of MS2 coat protein” value reads like this: (input ligand: FMN 200 uM) 245 nM; (input ligand: none) 885 nM.

With “UGUUGGCGAGGAUAUACAUGAGGAUCACCCAUGUGAGAGAAAAAAGUGAGGAAGAAAAGUAGAAGGCGCUGACU [salish99_ex3_r3_044] (puzzle: Exclusion 3)”, the “apparent KD of MS2 coat protein” value worked out at 254 nM under setting [1], 44 nM under setting [2] and 51.8 nM under setting [3].

Consider “UGUUGUCACGCAGGAUAUGUAUGAGGAUCACCCAUUAAUAAAUUUUAACCACGAGGAUCACCCGUGUAGAAGGGCGGGACAACA [pwkr exNG2 2xF5 1xFMN.14] (Eterna round: R96, puzzle: Exclusion NG 2)”, for which the “apparent KD of MS2 coat protein” value by setting is: (input ligand: FMN 200 uM) 30.6 nM; under setting [4], 20.1 nM; (input ligand: none) 29.9 nM.

In the case of “UGUUGUCGCGCAGGAUAUGAGGAUCACCCAUAGAAGGAUAUCGAAAGAGAAGGUCUGAGGAUUACCCAGAAGGGCGGGACAACU [pwkr exNG2 2xF5 2xFMN.13] (Eterna round: R96, puzzle: Exclusion NG 2)”, the “apparent KD of MS2 coat protein” value by setting is: (input ligand: FMN 200 uM) 807 nM; under setting [4], 133 nM; (input ligand: none) 137 nM.
